Test system: Saccharomyces cerevisiae
Assay: transcriptional activation domain activity (GFP:mCherry ratio, weighted mean of sorted bins, harmonized to initial dataset scale) (arbitrary fluorescence ratio units); higher = stronger transcriptional activation
Settings: beta-estradiol 1 µM; induction time 4 h
Protocol: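 53-aa protein tiles (fungal proteins plus yeast TF control tiles) fused C-terminally to a DBD-estrogen-binding domain-mCherry synthetic TF, integrated in S. cerevisiae (URA3 locus) with a GFP reporter. Cells were induced with 1 uM beta-estradiol for 4 h at 30 C, FACS-sorted into 8 bins by GFP:mCherry ratio and barcodes sequenced. Activity is the read-weighted mean bin fluorescence (GFP:mCherry), averaged over barcodes (median 12); tiles under 50 reads were discarded. New active-learning values were harmonized by linear fit onto the scale of the initial (Hummel et al.) dataset. The assay saturates at low and high signal.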

Sequence	transcriptional activation domain activity
AYSITLPICSSPILLLFIQSLLFLLPLFSITLSPSFSFILYLLHLFSLLLLCL	30200
AYTATNVGIPFNRAMDHLHRMMSRFEYCIFEGTSLPVFGIIGLQVRCQWLGCS	73700
AYTDEDDAHQIRRKQLSMVLRGMPSVFDSLTHARVYLELIFRQMEHYLYVAAT	42200
AYTSTMFLQWHNHMVEFYHLRCMLGATLRNLDNENPGASLPVQLWLLFAWHML	42100
AYWVVLGIWWFIFQQHCPGPPLPMGKNYLTIGWKQIWLAVKQYKHMPYTFIYL	53300
CASPIFRLKYLYKIPSGIAAMAHIFSVVNHFTFFELMWLMERWNFRRALLGLM	62900
CCIRNSLFQEDSKCIKQQPDLLSEQTAPFPILEDQCPALNLDRSNNDLLLQNN	35300
CCLLRTLGRFLLFIIFSPSLSTSSFQTLPLTLPFYLLSIFTKKPLYPIPFLCI	44800
CCMVWGRRWLIVLFPIFCLITVFVFKILEVFTGAFSWVENVRFLVVYLSCILA	34800
CCQSNSLLNMENYLVPYDNFREVVDSRLQEESHSNGVDNSNSNSDNKDSIRPK	24200
CDAGILLCLVCYLSSKLIYLFLVEKVFIIRGNRQRWTDKLFLFNMFGMLLPYC	51600
CDAPKLGLSGATLFEMIRFLDLYQGDWDSFLSQILVHAQIIRVLREALLILTV	65300
CDEHINMKEKEPEKDETPAADGAAKEEEKKPETKPDDTFQAFVVIAVALISMG	27600
CDLQQSHYTPWRILFGLREPLVSAMNYLITYIPRGESSVIIGIRTFVLFSLCF	37900
CDNIYLQQDQCGYVLEHCMDATPGLFNYIQLYYCSSFRPLVFIFMCGWLLFLF	54900
CDSGNEFDGRIGLRVSSIFVILIGSLIGAMLPVVLARSSKMRVPKLAFFVAKY	36900
CDSVYLHQDQCAHVLEYCMDATPGLINYIQLYFCSPIKPFIFLIMCCWLLFLF	51500
CDTGILLCLVCYLSSKVLLYFFLVEKVHVIRGNNDSRWKDKLFVFNCFGMMLP	38100
CDTVAHSAGRRERGRKQAGKRNDKERREGEERGKTGKTKRRGVARAGTGASAS	14800
CEMQFAKDTVVRRYCLLLECLELLPVSAIKAVTRMLHRIVVKCGCVAMFFKMS	70400
CEPLRKATRGLVTTVVNGNDVVPSLSIGVVRDFHSVALSFKEDTGGVLGEVRK	39100

Sequence	transcriptional activation domain activity
CFALVVAFGISRNTLLVKAFRCIQYCLSKMSYCLATRLQCCPEYSCYIHQPGD	75300
CFAMVQQIFAKLLIMFEPRLDIPLLKFYTLLYRSVYYAICRRQQLYQEDMIAA	57700
CFCCNYFKVPLFCCSLSLYQTIRFFLIFLLLLLQRPSFSVFLVNSILLRFFPL	37600
CFFLFYIIHLPLLFIHITKSMYVLIVSRFVSSFPVSVGWAVGRAHGFGPLFAQ	51900
CFFYSAIWLTTIPHCTGRCVRPCGVHLINLGHVCRNHSRYWGYCICNNKMTPY	57600
CFICYGYIVIRWWIEADRDPELIHQALVMIWYPIAYFVEIFPQSMVRVLNMHA	52600
CFILLHLVLSFFALSCLYCLVLLLLPLPLILLFLLSSPWKFVPVHLQRHFVVV	68600
CFKHIGLYWAERGITLGRLEQLVGCHSLFSALERQASLRAWSILGMLLTIVWF	61400
CFKLSLVALWPFGKSIDWNLRSAGCLSTVFNVIWLVLLGWHLCLIHLGLMLLF	43600
CFLVLSCRWLLVLPALTYLATSVLYTYDITITVTGQTRSVRLPSSIACILNVA	42200
CFSILFSRFAGPSIYLGMRILIMLLYVTLTLWTPWLFYFWVSILSLCIAPFLF	44300
CFSKCLDGHTLLLCTLYFLIINQKLLYCYVIVFFFWIWLSISLSYICVSELYY	57100
CFSLCFSLCFPFAFPLLFPFFPLLFPLLFPLLSLCFSLCFSLLPFPLELPFLF	37100
CFYLTTRFWDYKRKSYHYFLFGLCYFVNIMDLFYIWFFRDNVYYFIMCWCLTL	57200
CGFVVFVIRWSTVSVGYLGIIRWLVICKKLQFSEIKRIMRVYFCHMALFIFTL	40900
CGLCALVYHSLRFQLQSNMDVLLFRYNGSYKMVVVAATTKHLLLEDIKIKLLC	45700
CGQILLTICLLPLLFFFFFFFFWSKGVSPFLSHLSSVLLIMLGRIMQIVVGLW	38300
CGRCRCCRGLLPLYPHHPFSFFVLLCIPGMFLLLLVHWMFLSFVSGFAILVPE	79500
CGSQSPALLYPYYQIDTIVPCIRDLESYYKSAGFPTTTLIWPLFLHLMILFVV	75400
CHLLLVCLFYDFLTIEYYLYGSLLLLLLHDCFLLKICEFIVRPTCLPGLFHAK	60500
CHLTVIYFMSVPVIYLRLARLLFLEILTAGRIAIEGNGLGQGSLLAKTLRGRQ	66500

Sequence	transcriptional activation domain activity
CHVLRMYTPYWILFPNDLIQLLKVIPALRCLHILSKGIRIIRWKPLPYLLWED	51800
CIFFFSYYGIRILQRGVLLLFILLFYISLCDPLLFPPLFFFSSSFLGRAFFLY	89800
CIGAMVLIVLWAGGVCILVLVMCIPLEGVWDRRVNAKCIPHMTVMWYFNGVFN	62900
CIIFPHPFFSYSFFSFSPLFFFFFPSFLSFLSFLPSFLFFFSIVTPSSSSSTY	55100
CIIIVFIIRFLVLDLIGMFVCIYWVSFLFYFILFYFISRMVLHRVFFFFSFLI	49700
CIKATLAPDSAIFVGPSALIFHVLQLSILIILLLKTGGPGSGKGTQCTRLAKD	29600
CILVYLCHVSYLILLPRFDYVYNIIFNMVIGLTHNALWLLYSLPTSISLFRRF	53500
CIVLEKYIGRLLGLPCDMVFSVFTAASTLLYDSQTKEPNPDTSRRLKLCIHWL	68500
CKAHCGYILGHINIFQPINWIFVISSKVFPIDYVLYLLLILFFFSASVVGIAT	51900
CKAHCGYILGHINIFQPLNWIFVKSSKVFPIDYILYLLLVLFFFCSSVVGIAT	28100
CKRCSTLTCVGCGSRPLEKKLATEINVQGTKLTWCCSRGRLFVIWAILCGFDQ	43900
CKSFITVLMDLPHFTTSCVWVFFFSSFCFLWENASLLYRRLILSFFSFSFLFP	66000
CKVHAWLVGLGDVPPREMLQGLGRSLLVRSVVLSCHCLGRMSFVICIHAVHIM	42700
CKWLGFILLFVPVILSFLFPFLFYSFFSSFVFFFFFFFFVMAVFLFLQSPRSF	23300
CLAGKDLFGTLFGLRVIIQVVGILMSIPHTLVVTTRWIRRMLLVYFLDQLYYT	80600
CLCLILLALLAVELMALFVVITLVILLLIVIVLSLILLFANLMLPLVFLLLYI	26400
CLFFFSLFSLFILIFLSFLFFPPTSCFPSLYFLFYLSHFLLSFSFLYLYRYRF	39500
CLHFQFSLLFLLCLYVCVGWIFYACILSYLPPLLFIVSFVTILQRTAFCFGEE	45000
CLILVFADSWLFLTFTGVLLHGVGIELNKFTCSLGIFSCILLYTSSKVLIYFF	42800
